# Publication PMC11039987
# Where two headings read alike, the source gives them in different places.
# B1: 3ohDNA-F (structured_DNA)
# DNA: CATGTGACTCGTTACCTGAGTTTTTACTCAGGTAACGAGTCACATGATATATATAT
# Legend:
# Experiment in all cases: fluorescence anisotropy
# [1] = target: T1, RecBCD (prokaryote (species  in the …, UniProt P08394;P07648;P04993 1-1180;1-1122;1-608))
# [2] = target: T1, RecBCD; remark: listed apart in the source
# [3] = target: T1, RecBCD; remark: listed apart in the source
# T1 sequence (P08394 whole entry, chain 1 of 3): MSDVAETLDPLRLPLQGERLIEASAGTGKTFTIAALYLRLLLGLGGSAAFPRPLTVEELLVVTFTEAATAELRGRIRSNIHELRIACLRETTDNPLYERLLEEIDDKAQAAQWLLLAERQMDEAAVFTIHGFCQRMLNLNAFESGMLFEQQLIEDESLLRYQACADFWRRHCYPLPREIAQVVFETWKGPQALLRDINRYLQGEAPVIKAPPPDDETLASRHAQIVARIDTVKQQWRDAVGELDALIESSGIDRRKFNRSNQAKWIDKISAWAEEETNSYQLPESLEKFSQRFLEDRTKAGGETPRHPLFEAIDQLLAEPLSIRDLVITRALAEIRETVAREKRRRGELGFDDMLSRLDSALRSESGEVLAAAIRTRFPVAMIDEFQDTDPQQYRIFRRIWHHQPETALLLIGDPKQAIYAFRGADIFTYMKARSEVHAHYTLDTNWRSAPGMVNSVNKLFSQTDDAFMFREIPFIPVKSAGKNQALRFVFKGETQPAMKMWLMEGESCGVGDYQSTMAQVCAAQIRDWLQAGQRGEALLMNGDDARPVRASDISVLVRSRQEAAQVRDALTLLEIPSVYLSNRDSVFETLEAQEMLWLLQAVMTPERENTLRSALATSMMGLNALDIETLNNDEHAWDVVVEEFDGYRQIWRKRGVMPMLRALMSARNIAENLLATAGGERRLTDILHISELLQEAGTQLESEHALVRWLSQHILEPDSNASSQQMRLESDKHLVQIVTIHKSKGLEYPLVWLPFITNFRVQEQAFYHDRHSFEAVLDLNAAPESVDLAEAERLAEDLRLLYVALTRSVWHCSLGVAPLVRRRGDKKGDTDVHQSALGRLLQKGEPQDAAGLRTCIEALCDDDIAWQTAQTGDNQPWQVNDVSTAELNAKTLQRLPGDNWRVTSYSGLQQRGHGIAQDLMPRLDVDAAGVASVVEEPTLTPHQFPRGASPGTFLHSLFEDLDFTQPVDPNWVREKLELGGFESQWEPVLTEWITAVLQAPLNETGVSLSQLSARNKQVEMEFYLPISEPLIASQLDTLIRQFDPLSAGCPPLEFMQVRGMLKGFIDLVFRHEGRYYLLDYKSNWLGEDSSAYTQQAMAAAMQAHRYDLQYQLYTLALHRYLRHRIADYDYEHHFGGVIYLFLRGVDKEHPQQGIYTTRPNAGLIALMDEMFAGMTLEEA
# T1 sequence (P07648 whole entry, chain 2 of 3): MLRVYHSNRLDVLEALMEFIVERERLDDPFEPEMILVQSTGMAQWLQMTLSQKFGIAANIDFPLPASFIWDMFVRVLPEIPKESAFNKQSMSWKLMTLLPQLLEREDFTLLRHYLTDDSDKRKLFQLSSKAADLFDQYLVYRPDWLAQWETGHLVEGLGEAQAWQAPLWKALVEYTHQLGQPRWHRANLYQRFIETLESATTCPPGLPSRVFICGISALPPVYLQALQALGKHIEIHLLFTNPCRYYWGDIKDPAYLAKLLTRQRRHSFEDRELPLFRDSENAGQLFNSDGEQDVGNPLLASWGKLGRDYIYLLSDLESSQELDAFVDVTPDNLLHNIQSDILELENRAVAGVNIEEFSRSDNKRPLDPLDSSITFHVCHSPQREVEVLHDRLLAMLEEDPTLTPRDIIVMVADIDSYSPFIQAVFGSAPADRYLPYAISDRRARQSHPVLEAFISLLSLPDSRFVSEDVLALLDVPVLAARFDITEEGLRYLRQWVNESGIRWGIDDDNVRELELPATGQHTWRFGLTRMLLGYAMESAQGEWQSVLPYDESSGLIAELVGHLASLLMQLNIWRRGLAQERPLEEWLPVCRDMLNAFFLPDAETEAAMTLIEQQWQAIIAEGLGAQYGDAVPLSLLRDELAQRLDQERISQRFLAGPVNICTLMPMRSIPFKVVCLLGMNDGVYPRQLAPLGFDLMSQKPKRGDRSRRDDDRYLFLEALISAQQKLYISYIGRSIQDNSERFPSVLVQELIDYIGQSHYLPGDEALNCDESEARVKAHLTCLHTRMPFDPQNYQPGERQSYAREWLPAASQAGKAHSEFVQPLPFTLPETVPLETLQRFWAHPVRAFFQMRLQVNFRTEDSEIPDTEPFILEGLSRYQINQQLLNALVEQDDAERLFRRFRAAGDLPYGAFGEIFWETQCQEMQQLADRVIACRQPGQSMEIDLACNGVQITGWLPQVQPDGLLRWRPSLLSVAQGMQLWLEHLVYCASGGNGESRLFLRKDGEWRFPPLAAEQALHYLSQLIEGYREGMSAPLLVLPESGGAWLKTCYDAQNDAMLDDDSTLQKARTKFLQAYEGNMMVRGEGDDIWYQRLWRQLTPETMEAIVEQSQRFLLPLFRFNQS
# T1 sequence (P04993 whole entry, chain 3 of 3): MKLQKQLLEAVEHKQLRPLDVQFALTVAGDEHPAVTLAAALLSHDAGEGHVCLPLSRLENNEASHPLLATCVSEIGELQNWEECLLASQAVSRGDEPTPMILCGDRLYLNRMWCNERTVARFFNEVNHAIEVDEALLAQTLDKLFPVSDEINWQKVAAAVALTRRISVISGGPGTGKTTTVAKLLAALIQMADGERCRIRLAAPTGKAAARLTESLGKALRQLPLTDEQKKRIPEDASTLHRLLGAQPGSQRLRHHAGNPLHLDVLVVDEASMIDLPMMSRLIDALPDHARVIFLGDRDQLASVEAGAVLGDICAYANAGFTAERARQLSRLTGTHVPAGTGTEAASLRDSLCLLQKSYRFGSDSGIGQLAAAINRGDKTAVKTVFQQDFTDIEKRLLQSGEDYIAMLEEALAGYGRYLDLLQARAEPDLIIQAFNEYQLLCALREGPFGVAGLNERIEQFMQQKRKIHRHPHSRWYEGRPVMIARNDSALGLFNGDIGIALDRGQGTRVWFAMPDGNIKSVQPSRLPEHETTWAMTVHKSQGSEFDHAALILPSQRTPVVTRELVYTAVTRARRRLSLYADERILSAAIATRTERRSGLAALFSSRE
binder,measurement,setting,value
GATGTGACTCGTTACCTGAGTTTTTACTCAGGTAACGAGTCACATC (structured_DNA) [hpDNA-F],binding result,[1],binds
AGAGAGAGAGAGAGAGAGAGAGAG (ssDNA) [ssDNA-F],binding result,[2],binds
B1,Kd,[3],166 ± 41 nM
